The target of this assay is HSV-1 major capsid protein VP5 (gene product of UL19) (herpes simplex virus type 1 (HSV-1)). Nature of the assay: co-immunoprecipitation with VP5 antisera of in vitro translated radiolabeled protein mixed with BAC-VP5 Sf9 extract, SDS-PAGE.

As to HSV-1 UL15 gene product (75 kD protein), the fold amount co-immunoprecipitated with VP5 against the negative control proteins (HPV-6b E1, HPV-16 E1, HPV-16 E2) was 10 fold.

(Values after patent EP0860700A2.)
